We go through 97 sequences from the Immune Epitope Database (IEDB).

pIC50: −log10 of the molar value.

This experiment addresses HLA-A*02:01. Briefly: IEDB peptide-MHC binding, purified MHC/competitive/radioactivity; ≥ and ≤ were set here for values at or beyond the usual limits of such assays.
Setting [1] is: source organism: Vaccinia virus WR.
The mark [2] stands for this setting: source organism: Mammarenavirus lassaense.
Setting [3] is: source organism: Mammarenavirus choriomeningitidis.
Setting [4] is: source organism: Mammarenavirus juninense.
Setting [5] is: source organism: Mammarenavirus machupoense.

Usually pIC50 stands for −log10 of the IC50, conventionally taken in molar units. Consider RINDDSKSIL, for which the negative logarithm of the IC50 (pIC50) under setting [1] was 5.36. The same measure, in the same setting: under RIPNSLHSL stands 6.17; under RISGSNIVI, 5.44; under RISMVISLL, 5.84. With RLESYHRFDM, the pIC50 under setting [1] is 5.48. On to RLFSYNFTT, for which the pIC50 under setting [1] was 9.64.

Turning to RLHKECLLRL, the negative-log IC50 (pIC50) under setting [1] was 6.35. With RLIVLFEVFV, under setting [1], the pIC50 is 6.99. Take RLKSSQTIEL: under setting [1], the pIC50 is 6.47. As to RLLDDLVIV, the negative logarithm of the IC50 (pIC50) under setting [1] was 9.19. Turning to RLLDLFGPEV, under setting [1], the pIC50 is 9.01. With RLLGTFTWTL, the pIC50 under setting [2] is 8.29.

As for RLNDFLGLL, the pIC50 under setting [1] was 7.96.

As to RLNPEVSYFT, under setting [1], the pIC50 was 6.89. As to RLSLNRTIV, the pIC50 under setting [1] is 6.07. Regarding RLSTEERHI, the pIC50 under setting [1] is 6.15. On the same count and under the same terms, the same measure for RLVDFFPDI: 9.85. Same read-out and setting: the same measure for RLYDLTRYA: 8.40; for RLYDYFTRV: 7.96.

On to RMAWGGSYIA, for which the negative-log IC50 (pIC50) under setting [2] is 6.53. In the case of RMILYLESV, the negative logarithm of the IC50 (pIC50) under setting [1] was 8.74.

On to RMQRISGSNI, for which the negative-log IC50 (pIC50) under setting [1] is 5.36. As to RQIFIHYSV, the pIC50 under setting [1] is 9.19.

With RTCSNWVPL, under setting [1], the negative-log IC50 (pIC50) is 8.31. Regarding RTFLIDLAFL, the pIC50 under setting [1] was 8.18. Same read-out and setting: the same measure for RTLDTAIFT: 5.46. Still for that read-out and setting: under RTLLGLILFV stands 7.70; under RTLLPILLL, 6.51. As to RTMAWTVVNSI, the negative-log IC50 (pIC50) (source organism: Influenza A virus) was 6.19. RTNEEFDPV: under setting [1], the pIC50 was 6.85. Turning to RTSQKGTVA, under setting [1], the pIC50 was 6.12. On to RTVIHLEWL, for which the pIC50 under setting [1] was 6.29. As for RTVIHLEWLL, the negative logarithm of the IC50 (pIC50) under setting [1] was 6.87. As for RVETSPRPT, under setting [1], the negative-log IC50 (pIC50) is 5.71. Turning to RVFNEYGFV, the pIC50 under setting [1] is 6.72. On to RVFNEYGFVL, for which, under setting [1], the negative logarithm of the IC50 (pIC50) is 6.27. Take RVIGLCIRI: the pIC50 under setting [1] was 7.77. Still for that read-out and setting: the same measure for RVNVFETRI: 5.71. As to RVQSFKINI, the pIC50 under setting [1] is 6.11. Consider RVYEALYYV, for which the pIC50 under setting [1] was 8.82. On to RVYKTIWEI, for which the pIC50 under setting [1] is 6.55.

Turning to SASVFYRGA, under setting [1], the negative logarithm of the IC50 (pIC50) was 5.69. Turning to SIDIETESV, the negative logarithm of the IC50 (pIC50) under setting [1] was 6.63.

With SIDQKKSYV, the negative-log IC50 (pIC50) under setting [1] is 6.73. Still for that read-out and setting: the same measure for SIEGELESL: 5.40; for SIFGFQAEV: 9.27. As for SIFINKLNGA, the pIC50 under setting [1] is 5.74. As for SIINRDIIV, the pIC50 under setting [1] is 6.16. With SIINRDIIVI, under setting [1], the pIC50 is 6.08. SIISHNFCNL: the pIC50 under setting [3] is 5.43.

Take SIISTFHLSI: under setting [2], the pIC50 was 6.15. As to SILISLTNEI, the negative logarithm of the IC50 (pIC50) under setting [1] was 6.55. With SIRFHIKEL, under setting [1], the negative logarithm of the IC50 (pIC50) was 5.81.

Consider SIRLELVNLI, for which the negative-log IC50 (pIC50) under setting [1] is 5.66. Still for that read-out and setting: under SISVVFSTNL stands 5.54; under SITKEKIKI, 5.32; under SIYECITFL, 7.11.

For SLAADLEKL, under setting [3], the pIC50 was 7.35. On to SLDSLVHLL, for which, under setting [1], the pIC50 is 8.48.

As for SLDVINYLI, the pIC50 under setting [1] is 9.26. As to SLEATYHII, the negative-log IC50 (pIC50) under setting [1] was 6.12. On to SLEATYHIII, for which the negative logarithm of the IC50 (pIC50) under setting [1] was 5.30. As to SLFLHLVGI, the pIC50 under setting [4] is 8.82. With SLFSLLLVI, the negative-log IC50 (pIC50) under setting [1] is 8.24. Turning to SLHSLSVET, the negative-log IC50 (pIC50) under setting [1] was 6.58. Still for that read-out and setting: under SLHSLSVETI stands 7.02. For SLIAIIKGIV, the negative-log IC50 (pIC50) under setting [4] was 6.12. Still for that read-out and setting: under SLIAIIKGV stands 7.92. Regarding SLIKSTLQV, under setting [5], the pIC50 is 6.61. Turning to SLKAFFSWSL, the negative-log IC50 (pIC50) under setting [4] was 5.80. With SLLDEDSKI, the negative-log IC50 (pIC50) under setting [1] is 7.00.

As for SLLPLSLLFL, under setting [5], the pIC50 is 8.14. In the case of SLLRKFLYCI, the negative logarithm of the IC50 (pIC50) under setting [1] is 6.47. Take SLLVAPMPT: the pIC50 under setting [1] is 6.03. Consider SLLVIWILIV, for which, under setting [1], the pIC50 is 5.99. As for SLMDMITLSL, the negative logarithm of the IC50 (pIC50) under setting [1] is 9.23. Consider SLNLTIVSV, for which the negative logarithm of the IC50 (pIC50) under setting [1] was 7.59. Turning to SLNQTVHSL, under setting [3], the pIC50 was 7.28.

As to SLNRTIVTKV, the pIC50 under setting [1] is 7.17. In the case of SLQSAGFTA, the pIC50 under setting [2] is 5.90. With SLQTCAGVI, under setting [1], the negative-log IC50 (pIC50) is 5.55. Take SLSKQDISL: the pIC50 under setting [1] is 7.17. SLSLHPLYV: the negative-log IC50 (pIC50) under setting [1] is 8.01.

With SLSSIRFHI, the negative-log IC50 (pIC50) under setting [1] was 7.96.

Consider SLSSQMTST, for which the negative-log IC50 (pIC50) under setting [1] is 5.70. Same read-out and setting: the same measure for SLTNEIYASI: 6.79. Take SLVEMMWDL: the pIC50 under setting [1] is 7.96.

For the sequence SLYDQKEINA, the pIC50 under setting [1] was 6.57.

For the sequence SMDTLLFFL, the pIC50 under setting [1] was 9.00.

SMFLMTATL: under setting [1], the pIC50 was 8.64.

SMICLSLILA: the pIC50 under setting [1] was 7.00. Take SMIGLCACV: the pIC50 under setting [1] is 8.70.

Regarding SMISRHCCI, under setting [1], the negative-log IC50 (pIC50) was 6.01. The same measure, in the same setting: under SMITMSAFL stands 7.70; under SMITMSAFLI, 7.23. Still for that read-out and setting: under SMLGIWFFT stands 9.19; under SMLIEVILTA, 6.10.
